Experiments:
[1] = biological target: T1, human CD40 expressed on CHO cells (human, UniProt P25942 21-277); test: FACS, CHO cells
T1 construct: whole, on cells; also used for the reporter cells over-expressing human CD40; also called cellular CD40; CHO-CD40 cells

[2] = biological target: T2, human PD-L1 expressed on CHO cells (human, UniProt Q9NZQ7 19-290); test: FACS, CHO cells
T2 construct: whole, on cells; also used for human PD-L1 on Raji cells in the reporter assay; also called cell surface PD-L1; Raji-PD-L1 cells
T2 sequence (Q9NZQ7 19-290): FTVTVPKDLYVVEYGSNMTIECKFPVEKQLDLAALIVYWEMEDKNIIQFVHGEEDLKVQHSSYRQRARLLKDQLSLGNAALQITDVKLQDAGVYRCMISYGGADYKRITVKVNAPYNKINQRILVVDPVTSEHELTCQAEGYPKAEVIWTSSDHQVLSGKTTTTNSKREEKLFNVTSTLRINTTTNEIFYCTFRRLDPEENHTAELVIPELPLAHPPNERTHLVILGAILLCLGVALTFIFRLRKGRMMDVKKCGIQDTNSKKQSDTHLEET

[3] = biological target: T3, Ly090 (human CD40 ECD protein with His tag) (human, UniProt P25942 21-193); test: bridging ELISA, coated CD40 ECD-His, soluble PD-L1 ECD-mFc
T3 construct: extracellular domain; also called human CD40 ECD protein (His tag); recombinant human CD40; not shown: His tag
T3 sequence (P25942 21-193): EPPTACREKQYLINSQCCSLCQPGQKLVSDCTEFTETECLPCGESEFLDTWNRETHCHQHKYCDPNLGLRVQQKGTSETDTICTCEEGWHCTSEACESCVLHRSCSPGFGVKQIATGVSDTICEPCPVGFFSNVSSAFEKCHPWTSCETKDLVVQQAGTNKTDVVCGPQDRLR
Protocol: (§1) Exemplary anti-PD-L1/CD40 bi-specific antibodies were analyzed by ELISA for their simultaneous binding to recombinant human PD-L1 and human CD40. Briefly, Ly090 (human CD40 ECD protein with His tag) was diluted and coated onto an ELISA plate with a volume of 100 μL/well by incubation at 4° C. overnight. The next day, the plate was blocked by PBST-BSA buffer, then serially diluted samples of anti-PD-L1/CD40 bi-specific antibodies were pipetted into appropriate wells at 50 μL/well, and the plate was incubated for 1 h followed by Washing. Human PD-L1 ECD protein (mouse IgG2a Fc tag) was added into the plate at 50 μL/well. After 1-hour incubation at room temperature, HRP-conjugated anti-Mouse IgG, Fc G2a antibody was added into the plate at 100 μL/well. The plate was incubated for 1 hour at room temperature followed by washing. TMB substrate solution was added at 100 μL/well and the color development was stopped by adding 100 uL/well Stop Solution (2N H₂SO₄). Absorbance at 450 nm and 620 nm was read by Tecan F200 Pro plate reader. GraphPad 7.0, “[Agonist] vs. response—Variable slope (four parameters)” was used to plot the binding data and calculate binding EC50 values.

[4] = biological target: T4, Human PD-L1 ECD protein (mouse IgG2a Fc tag) (human, UniProt Q9NZQ7 19-238); test: as above
T4 construct: extracellular domain; also called recombinant human PD-L1; not shown: mouse IgG2a Fc tag
T4 sequence (Q9NZQ7 19-238): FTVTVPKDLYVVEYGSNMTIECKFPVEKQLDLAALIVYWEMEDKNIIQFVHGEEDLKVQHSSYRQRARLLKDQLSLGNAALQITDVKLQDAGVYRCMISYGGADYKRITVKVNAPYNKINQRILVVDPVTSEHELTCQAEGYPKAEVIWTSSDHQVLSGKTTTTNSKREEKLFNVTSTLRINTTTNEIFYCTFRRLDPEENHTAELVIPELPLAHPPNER
Protocol: as §1

[5] = biological target: T5, human PD-1 expressed on CHO cells (human, UniProt Q15116 25-288); test: FACS, CHO cells
T5 construct: whole, on cells; also used for human PD-1 on Jurkat reporter cells; also called Jurkat/NFkB-Luci/PD-1 cells
T5 sequence (Q15116 25-288): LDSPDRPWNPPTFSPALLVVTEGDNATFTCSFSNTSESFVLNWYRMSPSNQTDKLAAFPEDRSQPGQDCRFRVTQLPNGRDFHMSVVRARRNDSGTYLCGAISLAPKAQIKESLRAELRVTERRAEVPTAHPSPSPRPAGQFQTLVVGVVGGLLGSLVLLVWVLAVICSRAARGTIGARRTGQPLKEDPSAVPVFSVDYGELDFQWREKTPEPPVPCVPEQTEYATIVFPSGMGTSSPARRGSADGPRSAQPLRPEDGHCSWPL

[6] = biological target: T3, Ly090 (human CD40 ECD protein with His …); test: bridging ELISA, coated CD40 ECD-His, soluble PD-1 ECD-mFc
Protocol: (§2) Briefly, human CD40 ECD protein (His tag) was diluted and coated onto an ELISA plate with a volume of […] by incubation at 4° C. overnight. […] After 1-hour incubation at room temperature, HRP-conjugated anti-Mouse IgG (H+L) antibody was added into the plate at 100 μL/well. The plate was incubated for 1 hour at room temperature followed by washing. TMB substrate solution was added at 100 μL/well and the color development was stopped by adding 100 uL/well Stop Solution (2N H2SO4). Absorbance at 450 nm and 620 nm was read by Tecan F200 Pro plate reader. GraphPad 7.0, “[Agonist] vs. response—Variable slope (four parameters)” was used to plot the binding data and calculate binding EC50 values.

[7] = biological target: T6, Human PD-1-ECD protein (mouse IgG2a Fc tag) (human, UniProt Q15116 25-170); test: as above
T6 construct: extracellular domain; also called soluble human recombinant PD-1; not shown: mouse IgG2a Fc tag
T6 sequence (Q15116 25-170): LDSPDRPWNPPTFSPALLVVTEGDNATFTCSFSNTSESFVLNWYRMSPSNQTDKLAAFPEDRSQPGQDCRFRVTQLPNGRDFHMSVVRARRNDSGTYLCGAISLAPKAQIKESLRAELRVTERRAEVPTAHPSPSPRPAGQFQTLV
Protocol: as §2

Measured: binding result

T1 sequence (P25942 21-277): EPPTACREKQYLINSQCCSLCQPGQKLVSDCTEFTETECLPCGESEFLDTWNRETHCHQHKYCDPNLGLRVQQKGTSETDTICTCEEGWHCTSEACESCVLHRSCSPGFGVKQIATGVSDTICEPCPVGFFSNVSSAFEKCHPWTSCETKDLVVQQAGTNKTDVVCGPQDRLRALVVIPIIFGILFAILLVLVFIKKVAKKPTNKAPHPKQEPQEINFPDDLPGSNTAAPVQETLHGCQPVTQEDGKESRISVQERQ

B1: Ly349 (bispecific antibody, human IgG1, kappa)
heavy: QVQLVQSGAEVKKPGASVKVSCKASGYTFTDFWMSWVRQAPGQGLEWMGQIYPNTGTTHSNEKFKGRVTMTRDTSTSTVYMELSSLRSEDTAVYYCARSYHISTTPNWFAYWGQGTLVTVSSASTKGPSVFPLAPSSKSTSGGTAALGCLVKDYFPEPVTVSWNSGALTSGVHTFPAVLQSSGLYSLSSVVTVPSSSLGTQTYICNVNHKPSNTKVDKKVEPKSCDKTHTCPPCPAPELLGPSVFLFPPKPKDTLMISRTPEVTCVVVDVSHEDPEVKFNWYVDGVEVHNAKTKPREEQYNSTYRVVSVLTVLHQDWLNGKEYKCKVSNKALPAPIEKTISKAKGQPREPQVYTLPPSREEMTKNQVSLTCLVKGFYPSDIAVEWESNGQPENNYKTTPPVLDSDGSFFLYSKLTVDKSRWQQGNVFSCSVMHEALHNHYTQKSLSLSPG
light: DIQMTQSPSSLSASVGDRVTITCKASQNVYKKLEWYQQKPGKVPKVLIYHTNILQTGVPSRFSGSGSGTDYTLTISSLQPEDVATYYCYQWNSGPTFGGGTKVEIKRTVAAPSVFIFPPSDEQLKSGTASVVCLLNNFYPREAKVQWKVDNALQSGNSQESVTEQDSKDSTYSLSSTLTLSKADYEKHKVYACEVTHQGLSSPVTKSFNRGECGGGGSGGGGSGGGGSGGGGSDIQMTQSPSSLSASVGDRVTITCKASQNIYIYLNWYQQKPGKAPKLLIYNTNNLQTGVPSRFSGSGSGTDFTLTISSLQPEDFATYYCLQHSSRRTFGGGTKVEIKGGGGSGGGGSGGGGSGGGGSQVQLVESGGGLVQPGGSLKLSCATSGFNFNDYFMNWVRQASGKGLEWVGQIRNKNYNYATYYTESLEGRVTISRDDSKNTAYLQMNSLKTEDTAVYYCTSYYYDGFADYFDYWGQGTTVTVSS
notes: Ly076 HC (IgG1 mutated Fc) + Ly076 LC-TM740 scFv VL-VH
binds: [1] | [2] | [3] | [4]

B2: Ly609 (bispecific antibody, human IgG1, kappa)
heavy: QVTLKESGPALVKPTQTLTLTCTFSGFSLSTSGTCVSWIRQPPGKALEWLATICWEDSKGYNPSLKSRLTISKDTSKNQAVLTMTNMDPVDTATYYCARREDSGYFWFPYWGQGTLVTVSSASTKGPSVFPLAPSSKSTSGGTAALGCLVKDYFPEPVTVSWNSGALTSGVHTFPAVLQSSGLYSLSSVVTVPSSSLGTQTYICNVNHKPSNTKVDKKVEPKSCDKTHTCPPCPAPELLGPSVFLFPPKPKDTLMISRTPEVTCVVVDVSHEDPEVKFNWYVDGVEVHNAKTKPREEQYNSTYRVVSVLTVLHQDWLNGKEYKCKVSNKALPAPIEKTISKAKGQPREPQVYTLPPSREEMTKNQVSLTCLVKGFYPSDIAVEWESNGQPENNYKTTPPVLDSDGSFFLYSKLTVDKSRWQQGNVFSCSVMHEALHNHYTQKSLSLSPGGGGGSGGGGSGGGGSGGGGSEVQLVESGGGLVQPGGSLRLSCAASGFTFTNYGLHWVRQAPGKGLEWVSSISPSGGVTYYRDSVKGRFTISRDNSKNTLYLQMNSLRAEDTAVYYCAKPFLGWGGANWIAHWGQGTLVTVSSGGGGSGGGGSGGGGSGGGGSDIQMTQSPSSLSASVGDRVTITCLASEDISNDLAWYQQKPGKAPKLLIYFVDRLLDGVPSRFSGSGSGTDFTLTISSLQPEDFATYYCQQSYKYPPTFGQGTKLEIK
light: NIQMTQSPSSLSASVGDRVTITCKAGQNVNNYLAWYQQKPGKAPKVLIFNANSLQTGVPSRFSGSGSGTDFTLTISSLQPEDFATYYCQQYNSWPTFGGGTKVEIKRTVAAPSVFIFPPSDEQLKSGTASVVCLLNNFYPREAKVQWKVDNALQSGNSQESVTEQDSKDSTYSLSSTLTLSKADYEKHKVYACEVTHQGLSSPVTKSFNRGEC
notes: Ly516 HC (IgG1 mutated Fc)-TM559 scFv VH-VL + Ly516 LC
binds: [1] | [5] | [6] | [7]

B3: Ly301 (bispecific antibody, human IgG1, kappa)
heavy: QVQLVQSGAEVKKPGASVKVSCKASGYTFTDFWMSWVRQAPGQGLEWMGQIYPNTGTTHSNEKFKGRVTMTRDTSTSTVYMELSSLRSEDTAVYYCARSYHISTTPNWFAYWGQGTLVTVSSASTKGPSVFPLAPSSKSTSGGTAALGCLVKDYFPEPVTVSWNSGALTSGVHTFPAVLQSSGLYSLSSVVTVPSSSLGTQTYICNVNHKPSNTKVDKKVEPKSCDKTHTCPPCPAPELLGPSVFLFPPKPKDTLMISRTPEVTCVVVDVSHEDPEVKFNWYVDGVEVHNAKTKPREEQYNSTYRVVSVLTVLHQDWLNGKEYKCKVSNKALPAPIEKTISKAKGQPREPQVYTLPPSREEMTKNQVSLTCLVKGFYPSDIAVEWESNGQPENNYKTTPPVLDSDGSFFLYSKLTVDKSRWQQGNVFSCSVMHEALHNHYTQKSLSLSPGGGGGSGGGGSGGGGSGGGGSDIQMTQSPSSLSASVGDRVTITCKASQNIYIYLNWYQQKPGKAPKLLIYNTNNLQTGVPSRFSGSGSGTDFTLTISSLQPEDFATYYCLQHSSRRTFGGGTKVEIKGGGGSGGGGSGGGGSGGGGSQVQLVESGGGLVQPGGSLKLSCATSGFNFNDYFMNWVRQASGKGLEWVGQIRNKNYNYATYYTESLEGRVTISRDDSKNTAYLQMNSLKTEDTAVYYCTSYYYDGFADYFDYWGQGTTVTVSS
light: DIQMTQSPSSLSASVGDRVTITCKASQNVYKKLEWYQQKPGKVPKVLIYHTNILQTGVPSRFSGSGSGTDYTLTISSLQPEDVATYYCYQWNSGPTFGGGTKVEIKRTVAAPSVFIFPPSDEQLKSGTASVVCLLNNFYPREAKVQWKVDNALQSGNSQESVTEQDSKDSTYSLSSTLTLSKADYEKHKVYACEVTHQGLSSPVTKSFNRGEC
notes: Ly076 HC (IgG1 mutated Fc)-TM740 scFv VL-VH + Ly076 LC
binds: [1] | [2] | [3] | [4]

B4: Ly338 (bispecific antibody, human IgG1, kappa)
heavy: QVQLVQSGAEVKKPGASVKVSCKASGYTFTDFWMSWVRQAPGQGLEWMGQIYPNTGTTHSNEKFKGRVTMTRDTSTSTVYMELSSLRSEDTAVYYCARSYHISTTPNWFAYWGQGTLVTVSSASTKGPSVFPLAPSSKSTSGGTAALGCLVKDYFPEPVTVSWNSGALTSGVHTFPAVLQSSGLYSLSSVVTVPSSSLGTQTYICNVNHKPSNTKVDKKVEPKSCDKTHTCPPCPAPELLGPSVFLFPPKPKDTLMISRTPEVTCVVVDVSHEDPEVKFNWYVDGVEVHNAKTKPREEQYNSTYRVVSVLTVLHQDWLNGKEYKCKVSNKALPAPIEKTISKAKGQPREPQVYTLPPSREEMTKNQVSLTCLVKGFYPSDIAVEWESNGQPENNYKTTPPVLDSDGSFFLYSKLTVDKSRWQQGNVFSCSVMHEALHNHYTQKSLSLSPGGGGGSGGGGSGGGGSGGGGSQVQLVESGGGLVQPGGSLKLSCATSGFNFNDYFMNWVRQASGKGLEWVGQIRNKNYNYATYYTESLEGRVTISRDDSKNTAYLQMNSLKTEDTAVYYCTSYYYDGFADYFDYWGQGTTVTVSSGGGGSGGGGSGGGGSGGGGSDIQMTQSPSSLSASVGDRVTITCKASQNIYIYLNWYQQKPGKAPKLLIYNTNNLQTGVPSRFSGSGSGTDFTLTISSLQPEDFATYYCLQHSSRRTFGGGTKVEIK
light: DIQMTQSPSSLSASVGDRVTITCKASQNVYKKLEWYQQKPGKVPKVLIYHTNILQTGVPSRFSGSGSGTDYTLTISSLQPEDVATYYCYQWNSGPTFGGGTKVEIKRTVAAPSVFIFPPSDEQLKSGTASVVCLLNNFYPREAKVQWKVDNALQSGNSQESVTEQDSKDSTYSLSSTLTLSKADYEKHKVYACEVTHQGLSSPVTKSFNRGEC
notes: Ly076 HC (IgG1 mutated Fc)-TM740 scFv VH-VL + Ly076 LC
binds: [1] | [2] | [3] | [4]
